± gives the standard deviation of the averaged measurements.
B1: library; a variant is named by its letters at N, in order (parent)
chain: AATGTTGTTGATGCAACCATAAAGTGATATTTAATAATTATTTATAATCAGCAACTTAACCACAAAACAACCATATATTGATATNTCACAAAACAACCATAANTTGATATTTTTGTGAATCGAGTATTTCAGCAAAACTACTGCAGTAAGAA

Key:
[1] = variants of: B1; test: relative integration efficiency (T-LR orientation) vs wild-type transposon end (log2 (normalized fold change)); transposon end mutated: left end; higher = more efficient transposition; conditions: with VchCAST RNA-guided transposition machinery (E. coli BL21(DE3) host, lacZ target)
In short: (§1)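 Barcode abundances in input plasmids and in genomic integration junctions were obtained by PCR amplification and Illumina sequencing. These came from E. coli BL21(DE3) co-transformed with a T7-driven effector plasmid and a pUC57 donor carrying 1549 left-end or 1849 right-end transposon variants, then plated with 0.1 mM IPTG at 37°C for 18 h. Relative integration efficiency is the output/input fold change, normalised to reference barcodes and log-transformed.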

[2] = variants of: B1; test: relative integration efficiency (T-RL orientation) vs wild-type transposon end (log2 (normalized fold change)); transposon end mutated: left end; higher = more efficient transposition; conditions: with VchCAST RNA-guided transposition machinery (E. coli BL21(DE3) host, lacZ target)
In short: as §1

| Variant | relative integration efficiency (log2) [1] | relative integration efficiency (log2) [2] |
| --- | --- | --- |
| CG T114G | -0.0542 ± 0.0021 | -0.0633 ± 0.064 |
| CG T114C | -0.293 ± 0.5 | -0.448 ± 0.095 |
| CG T114A | -0.000535 ± 0.15 | -0.291 ± 0.097 |
| CT A22C A23C G24T T25G T76G A77C T78G T79G A102C T104G T105G | < -10 | -8.29 ± 1.2 |
| CT A102C T104G T105G | -1.62 ± 0.69 | -1.98 ± 0.87 |
| CG T114G G115T T116G G117T | -0.295 ± 0.33 | -0.309 ± 0.015 |
| CG T120C | -0.00648 ± 0.1 | -0.131 ± 0.053 |
| CG T120A | 0.11 ± 0.41 | -0.141 ± 0.026 |
| CG T120G | -0.103 ± 0.1 | -0.231 ± 0.1 |
| CG T113A T114A G115C T116A | -0.0852 ± 0.079 | 0.0572 ± 0.12 |
| CT A23C G24T A77C T78G T104G | -0.239 ± 0.088 | -0.527 ± 0.28 |
| CG T111G T112G T113G T114G | -0.443 ± 0.72 | -0.798 ± 0.34 |
| CG A22C T76G A102C | – | -3.7 ± 1.5 |
| CT T104G | -0.14 ± 0.17 | -0.45 ± 0.14 |
| CG T116A G117C | 0.431 ± 0.71 | 0.161 ± 0.0064 |
| CG T113G T114G G115T T116G G117T A118C A119C T120G C121A G122T A123C G124T T125G | -0.192 ± 0.1 | -0.0695 ± 0.04 |
| CG T114A G115C | -0.272 ± 0.35 | -0.342 ± 0.024 |
| CT T100G A101C A102C | -1.43 ± 0.25 | -2.43 ± 0.88 |
| CG T48A C49T A50T C52T A53G C55G T56C T57G A58G C60T C61A A66T A67T | – | -4.31 ± 0.86 |
| CG T112G T113G T114G G115T | -0.51 ± 0.098 | -0.359 ± 0.072 |
| CT A101C A102C T104G | -2.08 ± 1.2 | -1.96 ± 0.64 |
| CG T116G | 0.159 ± 0.61 | 0.0899 ± 0.05 |
| CG T116C | 0.235 ± 0.36 | -0.0857 ± 0.085 |

| Variant | relative integration efficiency (log2) [1] | relative integration efficiency (log2) [2] |
| --- | --- | --- |
| CG T116A | 0.317 ± 0.21 | 0.0633 ± 0.024 |
| CG A19C A73C A99C | – | -6.27 ± 1.8 |
| CG A44G T45C A47T T48A C49A G51A C52A A53T A54T T56A A58C | – | -6.6 ± 1.8 |
| CG A19C T20G A21C A22C | – | -3.48 ± 1.4 |
| CG T125G | 0.265 ± 0.28 | -0.0179 ± 0.099 |
| CG T42A A44T C49A G51T C52T C55T A59T C60A C61T C63T A64T A65T | – | -2.87 ± 0.52 |
| CT A22C A23C G24T T76G A77C T78G A102C T104G | -4.26 ± 1.6 | -3.88 ± 1.4 |
| CG T112G T113G | -0.314 ± 0.34 | -0.443 ± 0.12 |
| CG T6A G7C T8A T9A | – | -6.58 ± 0.36 |
| CG T20G T74G T100G | – | -6.64 ± 1.3 |
| CG T6G G7T | – | -9.04 ± 0.91 |
| CG T41A A44G A46G T48G A50G C52A A53T C55A T56C T57A A59T C60T | – | -4.27 ± 0.75 |
| CG T82A | – | -0.103 ± 0.77 |
| CT A21C A22C A23C G24T A75C T76G A77C T78G A101C A102C T104G | – | -7.99 ± 1.6 |
| CG T116A G117C A118T A119T | 0.00543 ± 0.19 | 0.0211 ± 0.042 |
| CG T114G G115T | 0.781 ± 0.54 | -0.471 ± 0.32 |
| CG T6G | – | -7.013 ± 0.063 |
| CG G7C T8A | – | -6.52 ± 0.12 |
| CG T114A G115C T116A G117C | -0.217 ± 0.74 | -0.00788 ± 0.19 |
| CG C49G A50T C52A A53T C55A T56C T57A A59T C61A A62C C63A A64G | – | -3.37 ± 1.4 |
| CG T112A T113A T114A G115C | -0.584 ± 1 | 0.0734 ± 0.12 |
| CT T104G T105G G106T | -1.03 ± 0.46 | -1.06 ± 0.9 |
| CG T114G G115T T116G G117T A118C A119C T120G C121A G122T A123C G124T T125G | 0.318 ± 0.049 | 0.295 ± 0.074 |

| Variant | relative integration efficiency (log2) [1] | relative integration efficiency (log2) [2] |
| --- | --- | --- |
| CT A23C A77C | -0.217 ± 1.2 | -0.234 ± 0.065 |
| CG T113A T114A | -0.122 ± 0.087 | -0.426 ± 0.25 |
| CG T114G T120A | 0.16 ± 0.11 | -0.2 ± 0.041 |
| CG T113G T114G G115T T116G | -0.271 ± 0.14 | -0.144 ± 0.053 |
| CT A102C | -1.29 ± 0.9 | -0.973 ± 0.41 |
| CG T116G G117T A118C A119C | -0.21 ± 0.42 | 0.0794 ± 0.11 |
| CG G4C T5A T6A G7C | – | -7.62 ± 0.39 |
| CG G7T T8G T9G G10T | – | -7.84 ± 0.54 |
| CG T112A T113A | -0.503 ± 0.53 | -0.318 ± 0.2 |
| CG T45C A46T A47T C49T A50G C52T A53T T56A A59T C60T | – | -6.51 ± 2 |
| CG T113G T114G | -0.0365 ± 0.41 | -0.199 ± 0.073 |
| CG T111G | 0.0369 ± 0.43 | -0.195 ± 0.25 |
| CG T111C | -0.338 ± 0.58 | -0.142 ± 0.1 |
| CG T3A G4C T5A T6A | – | -6.84 ± 0.4 |
| CG T8G T9G G10T A11C | – | -7.43 ± 0.35 |
| CT | 0.219 ± 0.67 | -0.0852 ± 0.034 |
| CT A22C A23C T76G A77C A102C | -3.01 ± 0.15 | -3.81 ± 0.97 |
| CG T6A G7C | – | -6.27 ± 0.56 |
| CG T113G | 0.451 ± 0.17 | -0.0711 ± 0.12 |
| CG T113C | 0.405 ± 0.02 | 0.263 ± 0.16 |
| CG T113A | -0.342 ± 0.22 | -0.277 ± 0.047 |
